Data taken from PMC3138737, “Interaction between the Triglyceride Lipase ATGL and the Arf1 Activator GBF1” (PLoS ONE, 2011).

B1: HA-tagged H. sapiens ATGL (full-length) (natural protein)
chain: MFPREKTWNISFAGCGFLGVYYVGVASCLREHAPFLVANATHIYGASAGALTATALVTGVCLGEAGAKFIEVSKEARKRFLGPLHPSFNLVKIIRSFLLKVLPADSHEHASGRLGISLTRVSDGENVIISHFNSKDELIQANVCSGFIPVYCGLIPPSLQGVRYVDGGISDNLPLYELKNTITVSPFSGESDICPQDSSTNIHELRVTNTSIQFNLRNLYRLSKALFPPEPLVLREMCKQGYRDGLRFLQRNGLLNRPNPLLALPPARPHGPEDKDQAVESAQAEDYSQLPGEDHILEHLPARLNEALLEACVEPTDLLTTLSNMLPVRLATAMMVPYTLPLESALSFTIRLLEWLPDVPEDIRWMKEQTGSICQYLVMRAKRKLGRHLPSRLPEQVELRRVQSLPSVPLSCAAYREALPGWMRNNLSLGDALAKWEECQRQLLLGLFCTNVAFPPEALRMRAPADPAPAPADPASPQHQLAGPAPLLSTPAPEARPVIGALGL
B2: His-Sec7-GBF1(710–894) (domain or fragment, human, UniProt Q92538-1 710-894, looked up)
chain: FNQKPKKGIQFLQEKGLLTIPMDNTEVAQWLRENPRLDKKMIGEFVSDRKNIDLLESFVSTFSFQGLRLDEALRLYLEAFRLPGEAPVIQRLLEAFTERWMNCNGSPFANSDACFSLAYAVIMLNTDQHNHNVRKQNAPMTLEEFRKNLKGVNGGKDFEQDILEDMYHAIKNEEIVMPEEQTGLV
notes: Sec7 domain, residues 710-894; the end of the His tag is read from the printed name; vector pBAD/His C; also called His-tagged Sec7 domain of GBF1; His-Sec7-GBF1 fragment; not shown: His tag, N-terminal, kept

Columns and labels:
[1] = biological target: Venus-tagged full-length GBF1 D544A (human) (UniProt Q92538); test: co-IP; Cos7 cells co-transfected with HA-tagged ATGL constructs and Venus-tagged constructs; IP with anti-GFP, blot with anti-HA; lysis in 50 mM Tris-HCl pH 7.5, 100 mM NaCl, 1 mM EDTA, 0.5% NP40; 4°C
Sequence of Venus-tagged full-length GBF1 D544A (human) (Q92538 other isoform, or with tags, fused parts or gaps, stated change not applied): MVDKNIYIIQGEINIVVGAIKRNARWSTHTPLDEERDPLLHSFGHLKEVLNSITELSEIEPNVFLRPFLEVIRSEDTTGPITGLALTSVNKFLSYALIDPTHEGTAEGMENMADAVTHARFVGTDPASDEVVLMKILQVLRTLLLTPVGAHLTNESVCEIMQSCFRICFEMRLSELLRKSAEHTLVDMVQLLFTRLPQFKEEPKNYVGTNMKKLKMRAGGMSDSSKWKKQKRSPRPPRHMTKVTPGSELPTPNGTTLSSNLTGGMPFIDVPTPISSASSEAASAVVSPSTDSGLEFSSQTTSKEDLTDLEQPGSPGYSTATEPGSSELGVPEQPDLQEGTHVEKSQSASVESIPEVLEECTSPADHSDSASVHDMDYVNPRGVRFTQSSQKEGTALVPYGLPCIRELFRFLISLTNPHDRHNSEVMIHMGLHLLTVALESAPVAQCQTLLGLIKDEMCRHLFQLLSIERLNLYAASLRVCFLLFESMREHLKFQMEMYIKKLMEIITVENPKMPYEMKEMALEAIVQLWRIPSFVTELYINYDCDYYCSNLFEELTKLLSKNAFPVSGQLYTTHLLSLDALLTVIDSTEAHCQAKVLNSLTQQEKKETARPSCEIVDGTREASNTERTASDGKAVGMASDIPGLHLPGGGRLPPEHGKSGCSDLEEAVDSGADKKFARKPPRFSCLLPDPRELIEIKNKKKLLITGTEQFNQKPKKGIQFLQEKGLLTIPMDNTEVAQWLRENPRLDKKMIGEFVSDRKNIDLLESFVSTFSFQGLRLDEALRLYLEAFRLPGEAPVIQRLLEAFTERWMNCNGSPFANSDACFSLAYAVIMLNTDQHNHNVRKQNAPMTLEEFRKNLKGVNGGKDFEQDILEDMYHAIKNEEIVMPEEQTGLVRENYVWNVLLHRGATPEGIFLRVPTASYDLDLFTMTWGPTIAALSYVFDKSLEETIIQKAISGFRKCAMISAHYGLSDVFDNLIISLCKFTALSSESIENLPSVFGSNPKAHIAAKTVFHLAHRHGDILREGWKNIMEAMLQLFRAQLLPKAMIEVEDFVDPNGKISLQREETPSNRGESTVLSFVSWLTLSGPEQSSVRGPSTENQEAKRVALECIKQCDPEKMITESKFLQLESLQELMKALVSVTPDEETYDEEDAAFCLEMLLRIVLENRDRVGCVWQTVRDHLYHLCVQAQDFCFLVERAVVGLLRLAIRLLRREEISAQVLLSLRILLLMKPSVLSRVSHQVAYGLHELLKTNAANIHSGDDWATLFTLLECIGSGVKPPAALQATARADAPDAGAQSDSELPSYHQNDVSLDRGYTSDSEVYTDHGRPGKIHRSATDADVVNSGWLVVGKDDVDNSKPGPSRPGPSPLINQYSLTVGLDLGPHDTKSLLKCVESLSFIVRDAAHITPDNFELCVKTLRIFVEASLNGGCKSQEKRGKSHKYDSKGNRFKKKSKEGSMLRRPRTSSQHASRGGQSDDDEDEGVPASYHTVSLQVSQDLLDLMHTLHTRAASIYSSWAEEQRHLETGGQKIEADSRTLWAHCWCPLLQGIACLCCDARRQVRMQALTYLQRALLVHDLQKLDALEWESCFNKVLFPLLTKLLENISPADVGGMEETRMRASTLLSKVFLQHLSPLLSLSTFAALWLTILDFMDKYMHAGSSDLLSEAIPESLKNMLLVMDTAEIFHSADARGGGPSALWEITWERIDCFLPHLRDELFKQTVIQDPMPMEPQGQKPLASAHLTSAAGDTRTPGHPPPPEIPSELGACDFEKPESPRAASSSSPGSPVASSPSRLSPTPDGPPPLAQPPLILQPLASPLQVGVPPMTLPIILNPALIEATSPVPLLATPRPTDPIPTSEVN

[2] = biological target: Venus-tagged GBF1 HDS1 domain (human); test: as above
Sequence of Venus-tagged GBF1 HDS1 domain (human) (Q92538 688-888): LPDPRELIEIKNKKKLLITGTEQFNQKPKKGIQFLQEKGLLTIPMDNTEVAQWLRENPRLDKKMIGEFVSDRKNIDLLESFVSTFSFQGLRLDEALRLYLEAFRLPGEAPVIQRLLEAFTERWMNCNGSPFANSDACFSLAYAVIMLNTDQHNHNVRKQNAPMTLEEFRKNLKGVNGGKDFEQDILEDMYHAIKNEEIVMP

Venus-ΔDCB-GBF1 (human) = test: as above
Sequence of Venus-ΔDCB-GBF1 (human) (Q92538 whole entry, stated change not applied): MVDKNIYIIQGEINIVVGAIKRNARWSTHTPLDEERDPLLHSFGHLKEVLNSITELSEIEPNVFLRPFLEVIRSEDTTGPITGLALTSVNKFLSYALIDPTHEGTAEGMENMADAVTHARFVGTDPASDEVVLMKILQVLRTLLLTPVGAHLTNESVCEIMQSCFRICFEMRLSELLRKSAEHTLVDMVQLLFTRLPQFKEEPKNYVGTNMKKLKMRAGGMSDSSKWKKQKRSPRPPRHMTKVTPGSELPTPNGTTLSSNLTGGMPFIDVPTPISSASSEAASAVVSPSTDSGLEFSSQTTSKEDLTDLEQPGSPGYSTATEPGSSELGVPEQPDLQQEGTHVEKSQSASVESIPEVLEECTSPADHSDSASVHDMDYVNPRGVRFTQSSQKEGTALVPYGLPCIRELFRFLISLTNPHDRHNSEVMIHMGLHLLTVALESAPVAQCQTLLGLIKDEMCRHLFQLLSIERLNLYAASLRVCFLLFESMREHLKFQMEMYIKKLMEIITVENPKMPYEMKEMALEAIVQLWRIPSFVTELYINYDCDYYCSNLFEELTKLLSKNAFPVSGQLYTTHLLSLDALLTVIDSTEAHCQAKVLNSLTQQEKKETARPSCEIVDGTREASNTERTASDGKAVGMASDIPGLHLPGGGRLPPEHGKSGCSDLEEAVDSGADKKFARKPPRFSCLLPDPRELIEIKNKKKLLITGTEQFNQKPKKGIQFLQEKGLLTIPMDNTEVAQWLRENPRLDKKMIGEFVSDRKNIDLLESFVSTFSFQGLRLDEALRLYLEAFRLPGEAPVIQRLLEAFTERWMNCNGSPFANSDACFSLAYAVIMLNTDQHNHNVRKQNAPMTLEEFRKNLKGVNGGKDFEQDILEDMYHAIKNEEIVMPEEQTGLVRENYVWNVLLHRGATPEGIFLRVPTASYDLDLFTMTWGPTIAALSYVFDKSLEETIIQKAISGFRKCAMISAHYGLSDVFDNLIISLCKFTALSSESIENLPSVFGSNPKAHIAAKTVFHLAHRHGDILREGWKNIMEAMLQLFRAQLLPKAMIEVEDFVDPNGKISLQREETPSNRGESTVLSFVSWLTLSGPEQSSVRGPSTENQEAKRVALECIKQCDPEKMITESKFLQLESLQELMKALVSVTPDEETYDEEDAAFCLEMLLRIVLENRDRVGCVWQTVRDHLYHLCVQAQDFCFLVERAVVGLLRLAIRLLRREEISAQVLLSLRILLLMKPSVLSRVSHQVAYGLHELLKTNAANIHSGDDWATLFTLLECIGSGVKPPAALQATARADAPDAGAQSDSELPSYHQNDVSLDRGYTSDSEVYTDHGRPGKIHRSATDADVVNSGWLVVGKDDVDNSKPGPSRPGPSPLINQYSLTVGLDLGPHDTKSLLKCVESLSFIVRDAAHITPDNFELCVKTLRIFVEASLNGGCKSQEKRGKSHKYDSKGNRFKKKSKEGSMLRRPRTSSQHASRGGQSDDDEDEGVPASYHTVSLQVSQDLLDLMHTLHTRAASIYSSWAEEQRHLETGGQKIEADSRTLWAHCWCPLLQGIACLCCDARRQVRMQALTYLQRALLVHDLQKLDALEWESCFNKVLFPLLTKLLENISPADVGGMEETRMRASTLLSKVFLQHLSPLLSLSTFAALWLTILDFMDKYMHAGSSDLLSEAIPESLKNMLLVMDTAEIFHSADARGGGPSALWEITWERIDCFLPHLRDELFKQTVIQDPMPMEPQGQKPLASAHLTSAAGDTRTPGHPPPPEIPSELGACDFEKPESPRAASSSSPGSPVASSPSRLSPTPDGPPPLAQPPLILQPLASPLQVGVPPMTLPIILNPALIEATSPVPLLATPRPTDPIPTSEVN

[3] = biological target: Venus-tagged N-GBF1 D544A (human); test: as above
GST-tagged ATGL(300–504) = biological target: T1, GST-tagged ATGL(300–504) (human, UniProt Q96AD5 300-504); test: pull-down; quantitative: 0.1 nmole His-Sec7-GBF1(710–894) immobilised on Ni Sepharose, 1–20 µM GST-tagged ATGL(300–504) added; anti-GST immunoblot, bound versus free, Scatchard analysis; apparent Kd; conditions: both partners purified
T1 construct: source: E. coli BL21(DE3), purified (glutathione Sepharose 4B, Sephacryl S-200)
T1 sequence (looked up): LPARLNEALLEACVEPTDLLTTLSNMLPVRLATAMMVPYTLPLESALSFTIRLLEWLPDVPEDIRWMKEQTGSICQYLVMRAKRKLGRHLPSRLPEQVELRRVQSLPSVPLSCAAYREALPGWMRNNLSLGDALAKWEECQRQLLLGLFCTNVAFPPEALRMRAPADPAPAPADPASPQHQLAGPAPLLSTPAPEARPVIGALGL

Binder | fold level of interaction over wild type GBF1 [1] [fold] | percent of ATGL recovered in the co-IP [2] [%] | fold level of interaction over wild type GBF1 (Venus-ΔDCB-GBF1 (human)) [fold] | fold level of interaction over the wild type N-terminal region [3] [fold] | Kd (GST-tagged ATGL(300–504)) [µM]
B1 | 10 | 10 | 10 | 5 to 10 | –
B2 | – | – | – | – | 2.5 ± 0.3
